Source: patent publication US20160331811A1, “NON-AGGLOMERATING BIOCONJUGATES OF AMYLIN-MIMETIC COMPOUNDS AND POLYETHYLENEGLYCOL” (UNIVERSIDADE FEDERAL DO RIO DE JANEIRO, priority 2013, published 2016)
Ends that are not written are not given here.

Assays:
RAMP2 = RAMP2 (Homo sapiens, UniProt O60895); assay: RAMP-FITC fluorescence anisotropy coreceptor binding assay (RAMP2); conditions: fluorescence anisotropy of RAMP-FITC, duplicate assays, FIG. 3 and 4
Method: (§1) Purified monoPEGylated human amylin was assayed for RAMP2 and RAMP3 coreceptor binding interaction.
(§2) RAMP (receptor activity modifying protein) was labeled with fluorescein isothiocianate for 1 h at 4° C. in PBS ([…]) pH 7.4, and purified by size exclusion chromatography (SEC) in Sepharose G25 (agarose-based chromatography media, provided by the US company GE HealthCare) using the same buffer. Labelling was confirmed by UV absorbance measurements at A280 and A490, allowing estimation of coupling efficiency, relying on about 0.5 fluorescein/RAMP molecule.

RAMP3 = molecular target: T1, RAMP3 (Homo sapiens, UniProt O60896); assay: RAMP-FITC fluorescence anisotropy coreceptor binding assay (RAMP3); conditions: fluorescence anisotropy of RAMP-FITC, duplicate assays, FIG. 3 and 4
T1 sequence (O60896 24-148): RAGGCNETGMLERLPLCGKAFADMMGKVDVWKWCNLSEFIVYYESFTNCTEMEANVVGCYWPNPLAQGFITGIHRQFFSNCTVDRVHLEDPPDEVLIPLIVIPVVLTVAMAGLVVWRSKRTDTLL
Method: as §1, §2

[1] = Amyloid aggregation assay with thioflavin T (ThT); format: physicochemical; conditions: PBS pH 7.4, 37° C.
Method: Purified monoPEGylated human amylin of example 1 was re-suspended in DMSO and diluted to PBS pH 7.4 and allowed to incubate at 37° C. Samples were evaluated for amyloid aggregates by using the amyloid chromogenic probe thioflavin T (ThT).

[2] = Pharmacokinetics in swiss mice, plasma human amylin by ELISA; format: in vivo; conditions: 10 μg peptide in 100 uL saline, FIG. 6
Method: The pharmacokinetics of the monoPEGylated human amylin product were characterized in vivo in swiss mice. Mice were housed in a temperature-controlled room with a light-dark cycle of 12 h. Water and food were available ad libitum. Two groups were formed, control (free human amylin, not PEGylated) and PEGylated amylin. Animals received 100 uL of saline containing 10 μg of human amylin peptides, either free human amylin or purified monoPEGylated human amylin. Blood was collected retro-orbitally from mice (n=3 mice for each time interval), and the plasma was subjected to ELISA assay for human amylin as provided by the manufacturer (Millipore, Cat Number EZHA-52K—http://www.millipore.com/catalogue/item/ezha-52k).

Chain of RAMP2 (O60895 43-175, species assumed): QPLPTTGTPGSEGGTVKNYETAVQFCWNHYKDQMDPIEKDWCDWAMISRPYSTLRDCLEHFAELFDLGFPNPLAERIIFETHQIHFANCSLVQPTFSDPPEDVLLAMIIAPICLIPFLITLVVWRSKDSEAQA

With “HEWL: unrelated protein hen egg white lisozyme used as a control for non-specific binding” the “apparent binding affinity for coreceptor RAMP2” value (RAMP2) was “non-specific binding” and the “apparent binding affinity for coreceptor RAMP3” value (RAMP3) was “non-specific binding”.

With “free human amylin: 37-aminoacid amyloid polypeptide of the Langerhans islets, CAS RN: 106602-62-4; not PEGylated control (KCNTATCATQRLANFLVHSSNNFGAILSSTNVGSNTY; not fully specified (C-terminus, bridges); cysteine pairing not given here)” the “amyloid aggregation (ThT)” value ([1]; 3 days, FIG. 5) was “almost all free human amylin was aggregated in amyloid form” and the “plasma decay / duration of stability in plasma” value [2] was “fast plasma decay”.

With “monoPEGylated human amylin: monoconjugate of human amylin and mPEG, purified by C18 reversed phase, peak at 9 Kda (example 1) (KCNTATCATQRLANFLVHSSNNFGAILSSTNVGSNTY; not fully specified (C-terminus, bridges); cysteine pairing not given here; also: mono-mPEG conjugate, site not given here; UniProt P10997 34-70, looked up)” the “amyloid aggregation (ThT)” value ([1]; day 7, FIG. 5) was “no signs of aggregation” and the “plasma decay / duration of stability in plasma” value [2] was “longer duration of stability in plasma”.
